Measured values published in paper PMC3668167, “Ski-interacting protein (SKIP) interacts with androgen receptor in the nucleus and modulates androgen-dependent transcription” (BMC Biochemistry, 2013).

T1: GAL4 DNA binding domain fusion of AR-LBD residues 642-917 (pM-GAL4DBD-AR642-917) (human, UniProt P10275 642-917)
T1 construct: also called AR-LBD 642-917; AR C-terminus; source: HEK293, transfected, mammalian two-hybrid fusion
T1 sequence (looked up): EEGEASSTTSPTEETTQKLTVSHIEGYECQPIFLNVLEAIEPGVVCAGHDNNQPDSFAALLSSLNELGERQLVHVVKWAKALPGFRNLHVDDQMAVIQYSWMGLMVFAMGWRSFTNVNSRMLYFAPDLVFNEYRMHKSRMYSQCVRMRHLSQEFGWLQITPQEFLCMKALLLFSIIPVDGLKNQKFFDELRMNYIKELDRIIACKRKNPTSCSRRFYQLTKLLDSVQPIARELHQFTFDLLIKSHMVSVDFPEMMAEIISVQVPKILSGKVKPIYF

T2: GAL4 DNA binding domain fusion of the AR AF-1 fragment, residues 1-555 (pM-GAL4DBD-AR-AF1) (human, UniProt P10275 1-555)
T2 sequence (looked up): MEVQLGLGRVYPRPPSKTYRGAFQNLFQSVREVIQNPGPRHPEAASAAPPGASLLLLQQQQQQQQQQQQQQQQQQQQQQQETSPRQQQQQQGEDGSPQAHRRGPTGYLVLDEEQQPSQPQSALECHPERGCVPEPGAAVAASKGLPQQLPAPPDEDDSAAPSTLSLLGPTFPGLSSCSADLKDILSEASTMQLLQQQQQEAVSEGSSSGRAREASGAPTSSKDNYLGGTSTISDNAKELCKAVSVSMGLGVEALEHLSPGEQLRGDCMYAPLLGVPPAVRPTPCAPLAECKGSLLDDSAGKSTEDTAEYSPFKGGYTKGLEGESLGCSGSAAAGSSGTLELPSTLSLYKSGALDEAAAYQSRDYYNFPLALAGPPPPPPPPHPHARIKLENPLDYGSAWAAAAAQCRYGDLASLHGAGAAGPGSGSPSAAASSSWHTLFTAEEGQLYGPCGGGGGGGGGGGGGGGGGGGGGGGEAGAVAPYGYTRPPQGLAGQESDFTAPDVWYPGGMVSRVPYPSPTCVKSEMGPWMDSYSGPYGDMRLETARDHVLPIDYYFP


Experiments:
[1] = molecular target: T1, GAL4 DNA binding domain fusion of …; experiment: two-hybrid; mammalian two-hybrid in HEK293 cells, GAL4(5)E1bTATA-luciferase reporter, GAL4DBD-AR642-917 with pVP16-AR1-538, SKIP-pCGN co-expressed, 1 nM DHT; activity relative to empty vectors without DHT; settings: partners not purified
[2] = molecular target: T1, GAL4 DNA binding domain fusion of …; experiment: two-hybrid; mammalian two-hybrid in HEK293 cells, GAL4(5)E1bTATA-luciferase reporter, GAL4DBD-AR642-917 with pVP16-AR1-538, empty pCGN (no SKIP), 1 nM DHT; activity relative to empty vectors without DHT; settings: partners not purified
[3] = molecular target: T2, GAL4 DNA binding domain fusion of the …; experiment: cell-based or functional assay
[4] = molecular target: T1, GAL4 DNA binding domain fusion of …; experiment: cell-based or functional assay

Binder	relative luciferase activity, fold over control (SKIP co-expressed) [1] [fold]	relative luciferase activity, fold over control [2] [fold]	mammalian one-hybrid luciferase reporter in HEK293 cells: AR-AF-1 (GAL4DBD-AR1-555) ligand-independent transcriptional activity with overexpressed SKIP against without SKIP [3] [fold]	GAL4 luciferase reporter in HEK293 cells: ligand-dependent (1 nM DHT) activation of the AR-LBD 642-917 construct with overexpressed SKIP (Figure 2 column 7) [4] [fold]
VP16 activation domain fusion of AR residues 1-538 (pVP16-AR1-538) (domain or fragment, human, UniProt P10275 1-538, looked up, androgen receptor, human, N-terminal residues 1-538; also called AR N-terminus; source: HEK293, transfected, mammalian two-hybrid fusion) MEVQLGLGRVYPRPPSKTYRGAFQNLFQSVREVIQNPGPRHPEAASAAPPGASLLLLQQQQQQQQQQQQQQQQQQQQQQQETSPRQQQQQQGEDGSPQAHRRGPTGYLVLDEEQQPSQPQSALECHPERGCVPEPGAAVAASKGLPQQLPAPPDEDDSAAPSTLSLLGPTFPGLSSCSADLKDILSEASTMQLLQQQQQEAVSEGSSSGRAREASGAPTSSKDNYLGGTSTISDNAKELCKAVSVSMGLGVEALEHLSPGEQLRGDCMYAPLLGVPPAVRPTPCAPLAECKGSLLDDSAGKSTEDTAEYSPFKGGYTKGLEGESLGCSGSAAAGSSGTLELPSTLSLYKSGALDEAAAYQSRDYYNFPLALAGPPPPPPPPHPHARIKLENPLDYGSAWAAAAAQCRYGDLASLHGAGAAGPGSGSPSAAASSSWHTLFTAEEGQLYGPCGGGGGGGGGGGGGGGGGGGGGGGEAGAVAPYGYTRPPQGLAGQESDFTAPDVWYPGGMVSRVPYPSPTCVKSEMGPWMDSYSGPYGDM	~300	12	–	–
HA-tagged Ski-interacting protein (SKIP-pCGN) (natural protein, human, UniProt Q13573 1-536, looked up) MALTSFLPAPTQLSQDQLEAEEKARSQRSRQTSLVSSRREPPPYGYRKGWIPRLLEDFGDGGAFPEIHVAQYPLDMGRKKKMSNALAIQVDSEGKIKYDAIARQGQSKDKVIYSKYTDLVPKEVMNADDPDLQRPDEEAIKEITEKTRVALEKSVSQKVAAAMPVRAADKLAPAQYIRYTPSQQGVAFNSGAKQRVIRMVEMQKDPMEPPRFKINKKIPRGPPSPPAPVMHSPSRKMTVKEQQEWKIPPCISNWKNAKGYTIPLDKRLAADGRGLQTVHINENFAKLAEALYIADRKAREAVEMRAQVERKMAQKEKEKHEEKLREMAQKARERRAGIKTHVEKEDGEARERDEIRHDRRKERQHDRNLSRAAPDKRSKLQRNENRDISEVIALGVPNPRTSNEVQYDQRLFNQSKGMDSGFAGGEDEIYNVYDQAWRGGKDMAQSIYRPSKNLDKDMYGDDLEARIKTNRFVPDKEFSGSDRRQRGREGPVQFEEDPFGLDKFLEEAKQHGGSKRPSDSSRPKEHEHEGKKRRKE	–	–	~5	9
